From article PMC2839002 (Chromosoma, 2009)
Residue numbers refer to the chain shown, from its start. Names and notes keep the numbering of the source.

B1: GST-C214 C6D (domain or fragment, human, UniProt P38432 362-576, looked up)
chain: AGAAGWRRSGSNGGGQAPGASPSVSLPASLGRGWGREENLFSWKGAKGRGMRGRGRGRGHPVSCVVNRSTDNQRQQQLNDVVKNSSTIIQNPVETPKKDYSLLPLLAAAPQVGEKIAFKLLELTSSYSPDVSDYKEGRILSHNPETQQVDIEILSSLPALREPGKFDLVYHNENGAEVVEYAVTQESKITVFWKELIDPRLIIEDPDNEDDEEPA
B2: GST-C214 DDE (domain or fragment, human, UniProt P38432 362-576, looked up)
chain: B1 chain with D205S, D207S, E209T
B3: GST-C214 S489D + DDE (domain or fragment, human, UniProt P38432 362-576, looked up)
chain: B1 chain with S128D, D205S, D207S, E209T
B4: GST-coilin DDE (natural protein)
chain: MAASETVRLRLQFDYPPPATPHCTAFWLLVDLNRCRVVTDLISLIRQRFGFSSGAFLGLYLEGGLLPPAESARLVRDNDCLRVKLEERGVAENSVVISNGDINLSLRKAKKRAFQLEEGEETEPDCKYSKKHWKSRENNNNNEKVLDLEPKAVTDQTVSKKNKRKNKATCGTVGDDNEEAKRKSPKKKEKCEYKKKAKNPKSPKVQAVKDWANQRCSSPKGSARNSLVKAKRKGSVSVCSKESPSSSSESESCDESISDGPSKVTLEARNSSEKLPTELSKEEPSTKNTTADKLAIKLGFSLTPSKGKTSGTTSSSSDSSAESDDQCLMSSSTPECAAGFLKTVGLFAGRGRPGPGLSSQTAGAAGWRRSGSNGGGQAPGASPSVSLPASLGRGWGREENLFSWKGAKGRGMRGRGRGRGHPVSCVVNRSTDNQRQQQLNDVVKNSSTIIQNPVETPKKDYSLLPLLAAAPQVGEKIAFKLLELTSSYSPDVSDYKEGRILSHNPETQQVDIEILSSLPALREPGKFDLVYHNENGAEVVEYAVTQESKITVFWKELIDPRLIIESPSNTDDEEPA

biological target: His-T7-SMN (UniProt Q16637 1-294); experiment: pull-down
Sequence (Q16637 whole entry): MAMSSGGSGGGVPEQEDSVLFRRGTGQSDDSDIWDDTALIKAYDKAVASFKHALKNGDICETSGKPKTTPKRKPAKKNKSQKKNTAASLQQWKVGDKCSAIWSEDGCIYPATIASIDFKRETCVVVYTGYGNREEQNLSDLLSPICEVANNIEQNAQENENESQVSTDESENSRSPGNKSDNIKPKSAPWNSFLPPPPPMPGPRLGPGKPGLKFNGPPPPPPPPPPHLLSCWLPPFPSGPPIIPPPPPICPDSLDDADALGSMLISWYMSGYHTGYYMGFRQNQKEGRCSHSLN

Binding result, binds:
B1
B2
B3

biological target: His-T7-SmB′ (UniProt P14678 1-240); experiment: pull-down

Binding result, binds:
B1
B4
B2
B3
